The values that follow come from paper PMC3193277.

In the series the target is 6xHis-p53 (UniProt P04637 1-393). The experiment in a line: EMSA.
Chain of 6xHis-p53 (P04637 whole entry): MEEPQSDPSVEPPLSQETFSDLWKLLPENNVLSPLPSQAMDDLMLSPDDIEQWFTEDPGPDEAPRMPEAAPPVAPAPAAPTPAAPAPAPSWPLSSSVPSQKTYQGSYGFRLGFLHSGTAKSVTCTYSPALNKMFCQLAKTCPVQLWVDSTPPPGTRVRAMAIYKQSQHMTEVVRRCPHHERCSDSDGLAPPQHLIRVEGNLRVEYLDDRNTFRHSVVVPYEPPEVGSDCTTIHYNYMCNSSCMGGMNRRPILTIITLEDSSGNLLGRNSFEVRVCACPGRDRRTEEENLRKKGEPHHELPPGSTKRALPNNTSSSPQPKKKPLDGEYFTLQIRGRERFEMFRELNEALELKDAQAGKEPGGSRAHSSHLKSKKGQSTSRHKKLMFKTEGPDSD

B1: GADD45 probe (intron 3 p53RE) (dsDNA)
DNA 1: GTAGCTGATATCGAATTCTCGAGCAGAACATGTCTAAGCATGCTGGGCTCGAGAATTCCTGCAGCC
DNA 2: GGCTGCAGGAATTCTCGAGCCCAGCATGCTTAGACATGTTCTGCTCGAGAATTCGATATCAGCTAC
On to B1, for which the binding result is recorded as “binds”.
